Patent US20190015519A1, “MMP-SENSITIVE TAXANE PRODRUG” (Incanthera Ltd, priority 2015, published 2019)
Values joined by “and” are separate entries in the source; they are usually repeats but may differ in a detail not shown here. Identical values can stand only once. “Also recorded” adds a separate entry of the source.

Tests used:
[1] = system: prostate tumour-associated MT-MMPs; assay: Incubation in tissue culture media containing prostate tumour cells; type: cell-based; details: incubation at 20 um in tissue culture media with cells; compared to other agents tested
[2] = target: MMP14 (Homo sapiens, UniProt P50281); assay: Cleavage by recombinant MMP14 in vitro (HPLC traces, mass spectrometry); type: biochemical; details: over 18 h
[3] = Systemic toxicity by mouse body weight; type: in vivo; details: mice
[4] = target: MMP 15 (Homo sapiens, UniProt P51511); assay: Cleavage by recombinant MMP15 in vitro (HPLC traces); type: biochemical; details: over 18 h
MMP 15, sequence (P51511 132-669): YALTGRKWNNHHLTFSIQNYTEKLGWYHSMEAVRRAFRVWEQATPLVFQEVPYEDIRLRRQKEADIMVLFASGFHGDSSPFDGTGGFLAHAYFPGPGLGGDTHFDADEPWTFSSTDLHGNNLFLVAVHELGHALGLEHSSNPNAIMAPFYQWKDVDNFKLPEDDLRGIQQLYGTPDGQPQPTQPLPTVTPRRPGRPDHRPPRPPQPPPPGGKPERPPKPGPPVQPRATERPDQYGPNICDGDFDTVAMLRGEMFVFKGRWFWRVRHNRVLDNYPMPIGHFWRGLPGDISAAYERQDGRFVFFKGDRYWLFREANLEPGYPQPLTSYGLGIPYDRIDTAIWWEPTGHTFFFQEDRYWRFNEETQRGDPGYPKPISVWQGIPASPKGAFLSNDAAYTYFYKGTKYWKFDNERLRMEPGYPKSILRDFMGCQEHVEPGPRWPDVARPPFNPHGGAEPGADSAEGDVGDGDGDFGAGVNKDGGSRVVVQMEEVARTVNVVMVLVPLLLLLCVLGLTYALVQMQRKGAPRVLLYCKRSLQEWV

[5] = ALL Taxol Compounds (1uM) PC3 Vs Liver Vs HT1080 Metabolism
Procedure: Table printed on a drawing sheet, Fig. 7 (Cont.)
Title: ALL Taxol Compounds (1uM) PC3 Vs Liver Vs HT1080 Metabolism
(§1) Footnotes: [diagonal hatching] Tumour (51-100%) / Liver (0-15%) / [horizontal hatching] Tumour & Liver (26-50%) / [cross hatching] Tumour (0-25%) / Liver (51-100%)
First reader's note: Continuation of Fig. 7; cell hatching classifies the values per the legend, and the title states 1uM while the head row states 1mM.

[6] = ALL Taxol Compounds (10uM) PC3 Vs Liver Vs HT1080 Metabolism
Procedure: Table printed on a drawing sheet, Fig. 8 (Cont.)
Title: ALL Taxol Compounds (10uM) PC3 Vs Liver Vs HT1080 Metabolism
as §1
First reader's note: Continuation of Fig. 8; the title prints 10uM while the head row prints 10mM, and cell hatching marks the classes given in the legend.

[7] = Incubation with PC3 tumour homogenate (tumour activation); type: in vitro ADME
From the text: A paclitaxel (Taxol) standard is shown in the top trace,
(§2) The relative importance of individual amino acids within the MT-MMP peptide recognition sequence has been investigated following extensive ex vivo metabolic studies. These studies employed tissue homogenates to assess activation of prodrug conjugates in tumour (PC-3) tissues and stability in normal tissues (liver kidney lung).

[8] = ALL Taxol Compounds (1uM) (ALL Tissue Metabolism)
Procedure: Table printed on a drawing sheet, Fig. 11
Title: ALL Taxol Compounds (1uM) (ALL Tissue Metabolism)
Footnotes: Tumour (51-100%) / Liver (0-15%) / Tumour & Liver (26-50%) / Tumour (0-25%) / Liver (51-100%)
First reader's note: Cell hatching codes the classes given in the legend; all compounds tested at 1uM in tissue homogenates.

[9] = Metabolism in LNCaP prostate cancer cell line; type: in vitro ADME
[10] = Top 3 Taxol Compounds (20uM) PC3 Vs LNCaP (x2) Vs PNT2 Cell-based assay
Procedure: Table printed on a drawing sheet, Fig. 9 (Cont.)
Title: Top 3 Taxol Compounds (20uM) PC3 Vs LNCaP (x2) Vs PNT2 Cell-based assay
Footnotes: [diagonal hatching] Tumour (51-100%) / Non-Tumour (0-15%) / [horizontal hatching] Tumour & Non-Tumour (26-50%) / [cross hatching] Tumour (0-25%) / Non-Tumour (51-100%)
First reader's note: Continuation of Fig. 9; cell shading (hatching) classifies the values by the legend, and all compounds were tested at 20uM in cell culture.

[11] = system: PC3 xenografts; assay: Anti-tumour efficacy study in PC3 xenografts; type: in vivo, mouse; details: PC3-bearing mice; single dose; ICT3205 20 mg/kg, paclitaxel 7 mg/kg (molar equivalent)
[12] = In vivo murine pharmacokinetic study monitoring paclitaxel release in tumour, tissues and plasma
From the text: The early peak drug concentrations associated with paclitaxel dosing are removed by administration of prodrug. A 10-fold increase in tumour concentration of paclitaxel is observed following administration as ICT3205.
FIG. 21 provides a table highlighting in greater detail the disparity of distribution between normal tissues and tumour tissues for paclitaxel alone, parent ICT3205 and paclitaxel release from the prodrug.

[13] = PK study (PC3) ICT3205 - 15mg/kg (5mg/kg taxol) IP Almost undetectable concentrations of ICT3205 in tumour
Procedure: Table printed on a drawing sheet, Fig. 21
Title: PK study (PC3) ICT3205 - 15mg/kg (5mg/kg taxol) IP Almost undetectable concentrations of ICT3205 in tumour
Footnotes: Tumour AUC ↑ x10-fold Tumour Cmax ↑ x10-fold } For ACTIVE Taxol / ALSO Tissue AUC ↓ Tissue Cmax ↓ x10-fold } For ACTIVE Taxol
The patent's description of the figure: FIG. 21 provides a table highlighting in greater detail the disparity of distribution between normal tissues and tumour tissues for paclitaxel alone, parent ICT3205 and paclitaxel release from the prodrug.
First reader's note: The ratio cells span the three analyte rows of each tissue and are repeated in each row; the first PC3 row is printed as 'ICT2305' (boxed) and has its own empty Cmax Ratio cell.

[14] = Incubation with normal tissue homogenates (normal tissue stability); type: in vitro ADME
Procedure: Parent molecules are incubated with tissue homogenate and half lives calculated Green indicates acceptable whereas red is unacceptable.
as §2

CC(=O)O[C@H]1C(=O)[C@@]2(C)C([C@H](OC(=O)c3ccccc3)[C@]3(O)C[C@H](OC(=O)[C@H](OC(=O)OCc4ccc(NC(=O)[C@H](CC(C)C)NC(=O)[C@H](Cc5ccc(O)cc5)NC(=O)[C@H](CCc5ccccc5)NC(=O)CNC(=O)[C@H](CCCNC(N)=O)NC(=O)[C@H](CO)NC(=O)[C@H](CCCNC(=N)N)NC(=O)CCNC(=S)Nc5ccc6c(c5)C(=O)OC65c6ccc(O)cc6Oc6cc(O)ccc65)cc4)[C@@H](NC(=O)c4ccccc4)c4ccccc4)C(C)=C1C3(C)C)[C@]1(OC(C)=O)CO[C@@H]1C[C@@H]2O (some centres unmarked) [ICT3205]
cleavage by prostate tumour-associated MT-MMPs and release of paclitaxel [1]: superior cleavage
cleavage by recombinant MMP14 [2]: cleavage
toxicity and adverse systemic effects as indicated by mouse body weight [3]: no toxicity and no adverse systemic effects
cleavage by recombinant MMP 15 [4]: cleavage
Tissue Homogenate Metabolism (1 µM) | HT1080 Stability (% loss) [5]: 60 % loss
Tissue Homogenate Metabolism (1 µM) | HT1080 Taxol Release (% gain) [5]: 58 % gain
Tissue Homogenate Metabolism (1 µM) | Liver Stability (% loss) [5]: 12 % loss
Tissue Homogenate Metabolism (1 µM) | Liver Taxol Release (% gain) [5]: 19 % gain
Tissue Homogenate Metabolism (1 µM) | PC3 Stability (% loss) [5]: 77 % loss
Tissue Homogenate Metabolism (1 µM) | PC3 Taxol Release (% gain) [5]: 85 % gain
Tissue Homogenate Metabolism (10 µM) | HT1080 Stability (% loss) [6]: 48 % loss
Tissue Homogenate Metabolism (10 µM) | HT1080 Taxol Release (% gain) [6]: 55 % gain
Tissue Homogenate Metabolism (10 µM) | Liver Stability (% loss) [6]: 12 % loss
Tissue Homogenate Metabolism (10 µM) | Liver Taxol Release (% gain) [6]: 21 % gain
Tissue Homogenate Metabolism (10 µM) | PC3 Stability (% loss) [6]: 54 % loss
Tissue Homogenate Metabolism (10 µM) | PC3 Taxol Release (% gain) [6]: 60 % gain
metabolism (disappearance, activation) of conjugate in PC3 ([7]; PC3 prostate cancer cell line homogenate): disappearance; also recorded: metabolised equally quickly; also recorded: metabolised rapidly
paclitaxel release in PC3 tumour ([7]; PC3 tumour homogenate): differential release of free paclitaxel; also recorded: appearance of paclitaxel
Tissue Homogenate Metabolism (1uM) | Kidney Stability (% loss) [8]: 4 % loss
Tissue Homogenate Metabolism (1uM) | Kidney Taxol Release (% gain) [8]: 4 % gain
Tissue Homogenate Metabolism (1uM) | Lung Stability (% loss) [8]: 19 % loss
Tissue Homogenate Metabolism (1uM) | Lung Taxol Release (% gain) [8]: 12 % gain
metabolism of conjugate in LNCaP [9]: metabolised equally quickly
Cell Culture Metabolism (20uM) | LNCaP (2) Taxol Release (% gain) [10]: 81 % gain
Cell Culture Metabolism (20uM) | LNCaP Stability (% loss) [10]: 100 % loss
Cell Culture Metabolism (20uM) | LNCaP Taxol Release (% gain) [10]: 73 % gain
Cell Culture Metabolism (20uM) | PC3 Stability (% loss) [10]: 84 % loss
Cell Culture Metabolism (20uM) | PC3 Taxol Release (% gain) [10]: 49 % gain
Cell Culture Metabolism (20uM) | PNT2 Stability (% loss) [10]: 21 % loss
Cell Culture Metabolism (20uM) | PNT2 Taxol Release (% gain) [10]: 12 % gain
anti-tumour effect (growth delay) [11]: highly significant growth delay; also recorded: superior anti-tumour effects
levels of paclitaxel released from ICT3205 in heart ([12]; heart): < 500 nM
AUC ratio of paclitaxel released from ICT3205 compared to paclitaxel administered alone, normal tissues ([12]; normal tissues, AUC in uM.h, ICT3205 20 mg/kg vs paclitaxel 7 mg/kg): 0.05-0.99
Cmax ratio of paclitaxel released from ICT3205 vs paclitaxel alone, other tissues ([12]; other tissues, ICT3205 20 mg/kg vs paclitaxel 7 mg/kg): 0.02-0.19
levels of paclitaxel released from ICT3205 in plasma ([12]; plasma): below detectable levels
AUC ratio of paclitaxel released from ICT3205 compared to paclitaxel administered alone, tumour ([12]; tumour, AUC in uM.h, ICT3205 20 mg/kg vs paclitaxel 7 mg/kg): 16.2
Cmax ratio of paclitaxel released from ICT3205 vs paclitaxel alone, tumour ([12]; tumour, ICT3205 20 mg/kg vs paclitaxel 7 mg/kg): 9.77
increase in tumour concentration of paclitaxel following administration as ICT3205 ([12]; tumour, versus equimolar paclitaxel alone): 10 fold
Tmax [13]: 4 h and 2 h
stability in kidney and liver homogenates ([14]; kidney and liver, over other molecules): marked increased stability
appearance of paclitaxel in liver homogenate ([14]; liver homogenate): not in the liver
conjugate stability in liver homogenate ([14]; liver homogenate): relative stability
stability in normal tissue homogenates ([14]; liver, kidney, lung): stable; also recorded: long in vitro ‘half-life’ and stability

CC(=O)O[C@H]1C(=O)[C@@]2(C)[C@H]([C@H](OC(=O)c3ccccc3)[C@]3(O)C[C@H](OC(=O)[C@H](O)[C@@H](NC(=O)c4ccccc4)c4ccccc4)C(C)=C1C3(C)C)[C@]1(OC(C)=O)CO[C@@H]1C[C@@H]2O [paclitaxel, Paclitaxel, reference compound]
anti-tumour effect (growth delay) [11]: no significant anti-tumour effect; also recorded: no efficacy

MeO (PEG) [ICT3200]
Tissue Homogenate Metabolism (1 µM) | HT1080 Stability (% loss) [5]: 72 % loss
Tissue Homogenate Metabolism (1 µM) | HT1080 Taxol Release (% gain) [5]: 29 % gain
Tissue Homogenate Metabolism (1 µM) | Liver Stability (% loss) [5]: 5 % loss
Tissue Homogenate Metabolism (1 µM) | Liver Taxol Release (% gain) [5]: 5 % gain
Tissue Homogenate Metabolism (1 µM) | PC3 Stability (% loss) [5]: 82 % loss
Tissue Homogenate Metabolism (1 µM) | PC3 Taxol Release (% gain) [5]: 36 % gain
Tissue Homogenate Metabolism (10 µM) | HT1080 Stability (% loss) [6]: 61 % loss
Tissue Homogenate Metabolism (10 µM) | HT1080 Taxol Release (% gain) [6]: 30 % gain
Tissue Homogenate Metabolism (10 µM) | Liver Stability (% loss) [6]: 0 % loss
Tissue Homogenate Metabolism (10 µM) | Liver Taxol Release (% gain) [6]: 8 % gain
Tissue Homogenate Metabolism (10 µM) | PC3 Stability (% loss) [6]: 80 % loss
Tissue Homogenate Metabolism (10 µM) | PC3 Taxol Release (% gain) [6]: 36 % gain
Tissue Homogenate Metabolism (1uM) | Kidney Stability (% loss) [8]: 32 % loss
Tissue Homogenate Metabolism (1uM) | Kidney Taxol Release (% gain) [8]: 25 % gain
Tissue Homogenate Metabolism (1uM) | Lung Stability (% loss) [8]: 64 % loss
Tissue Homogenate Metabolism (1uM) | Lung Taxol Release (% gain) [8]: 31 % gain
Cell Culture Metabolism (20uM) | LNCaP (2) Stability (% loss) [10]: 62 % loss
Cell Culture Metabolism (20uM) | LNCaP (2) Taxol Release (% gain) [10]: 51 % gain
Cell Culture Metabolism (20uM) | LNCaP Stability (% loss) [10]: 61 % loss
Cell Culture Metabolism (20uM) | LNCaP Taxol Release (% gain) [10]: 62 % gain
Cell Culture Metabolism (20uM) | PC3 Stability (% loss) [10]: 89 % loss
Cell Culture Metabolism (20uM) | PC3 Taxol Release (% gain) [10]: 49 % gain
Cell Culture Metabolism (20uM) | PNT2 Stability (% loss) [10]: 60 % loss
Cell Culture Metabolism (20uM) | PNT2 Taxol Release (% gain) [10]: 22 % gain
